From patent publication US20120172295A1
Non-standard residues stand in square brackets, D forms with d. No end group written: not given here. *: point of attachment. Palmitoyl = CCCCCCCCCCCCCCCC(=O)*; Myristoyl = CCCCCCCCCCCCCC(=O)*; Aib = CC(C)(N)C(=O)O

B1: mt-361 (peptide)
peptide: H[Aib]QGTFTSDYSIYLD[Aib]QAAKEFVNWLMNGGPSSGAPPPSK-NH2
modifications: N-terminus assumed
SMILES: CC[C@H](C)[C@H](NC(=O)[C@H](CO)NC(=O)[C@H](Cc1ccc(O)cc1)NC(=O)[C@H](CC(=O)O)NC(=O)[C@H](CO)NC(=O)[C@@H](NC(=O)[C@H](Cc1ccccc1)NC(=O)[C@@H](NC(=O)CNC(=O)[C@H](CCC(N)=O)NC(=O)C(C)(C)NC(=O)[C@@H](N)Cc1c[nH]cn1)[C@@H](C)O)[C@@H](C)O)C(=O)N[C@@H](Cc1ccc(O)cc1)C(=O)N[C@@H](CC(C)C)C(=O)N[C@@H](CC(=O)O)C(=O)NC(C)(C)C(=O)N[C@@H](CCC(N)=O)C(=O)N[C@@H](C)C(=O)N[C@@H](C)C(=O)N[C@@H](CCCCN)C(=O)N[C@@H](CCC(=O)O)C(=O)N[C@@H](Cc1ccccc1)C(=O)N[C@H](C(=O)N[C@@H](CC(N)=O)C(=O)N[C@@H](Cc1c[nH]c2ccccc12)C(=O)N[C@@H](CC(C)C)C(=O)N[C@@H](CCSC)C(=O)N[C@@H](CC(N)=O)C(=O)NCC(=O)NCC(=O)N1CCC[C@H]1C(=O)N[C@@H](CO)C(=O)N[C@@H](CO)C(=O)NCC(=O)N[C@@H](C)C(=O)N1CCC[C@H]1C(=O)N1CCC[C@H]1C(=O)N1CCC[C@H]1C(=O)N[C@@H](CO)C(=O)N[C@@H](CCCCN)C(N)=O)C(C)C
B2: mt-363 (peptide)
peptide: H[Aib]QGTFTSDYSKYLDEQAAKEFIAWLMNGGPSSGAPPPSK-NH2
modifications: N-terminus assumed
SMILES: CC[C@H](C)[C@H](NC(=O)[C@H](Cc1ccccc1)NC(=O)[C@H](CCC(=O)O)NC(=O)[C@H](CCCCN)NC(=O)[C@H](C)NC(=O)[C@H](C)NC(=O)[C@H](CCC(N)=O)NC(=O)[C@H](CCC(=O)O)NC(=O)[C@H](CC(=O)O)NC(=O)[C@H](CC(C)C)NC(=O)[C@H](Cc1ccc(O)cc1)NC(=O)[C@H](CCCCN)NC(=O)[C@H](CO)NC(=O)[C@H](Cc1ccc(O)cc1)NC(=O)[C@H](CC(=O)O)NC(=O)[C@H](CO)NC(=O)[C@@H](NC(=O)[C@H](Cc1ccccc1)NC(=O)[C@@H](NC(=O)CNC(=O)[C@H](CCC(N)=O)NC(=O)C(C)(C)NC(=O)[C@@H](N)Cc1c[nH]cn1)[C@@H](C)O)[C@@H](C)O)C(=O)N[C@@H](C)C(=O)N[C@@H](Cc1c[nH]c2ccccc12)C(=O)N[C@@H](CC(C)C)C(=O)N[C@@H](CCSC)C(=O)N[C@@H](CC(N)=O)C(=O)NCC(=O)NCC(=O)N1CCC[C@H]1C(=O)N[C@@H](CO)C(=O)N[C@@H](CO)C(=O)NCC(=O)N[C@@H](C)C(=O)N1CCC[C@H]1C(=O)N1CCC[C@H]1C(=O)N1CCC[C@H]1C(=O)N[C@@H](CO)C(=O)N[C@@H](CCCCN)C(N)=O
B3: mt-346 (peptide)
peptide: H[Aib]QGTFTSDYSKYLDEQAAKEFICWLMNGGPSSGAPPPSK-NH2
modifications: N-terminus assumed
SMILES: CC[C@H](C)[C@H](NC(=O)[C@H](Cc1ccccc1)NC(=O)[C@H](CCC(=O)O)NC(=O)[C@H](CCCCN)NC(=O)[C@H](C)NC(=O)[C@H](C)NC(=O)[C@H](CCC(N)=O)NC(=O)[C@H](CCC(=O)O)NC(=O)[C@H](CC(=O)O)NC(=O)[C@H](CC(C)C)NC(=O)[C@H](Cc1ccc(O)cc1)NC(=O)[C@H](CCCCN)NC(=O)[C@H](CO)NC(=O)[C@H](Cc1ccc(O)cc1)NC(=O)[C@H](CC(=O)O)NC(=O)[C@H](CO)NC(=O)[C@@H](NC(=O)[C@H](Cc1ccccc1)NC(=O)[C@@H](NC(=O)CNC(=O)[C@H](CCC(N)=O)NC(=O)C(C)(C)NC(=O)[C@@H](N)Cc1c[nH]cn1)[C@@H](C)O)[C@@H](C)O)C(=O)N[C@@H](CS)C(=O)N[C@@H](Cc1c[nH]c2ccccc12)C(=O)N[C@@H](CC(C)C)C(=O)N[C@@H](CCSC)C(=O)N[C@@H](CC(N)=O)C(=O)NCC(=O)NCC(=O)N1CCC[C@H]1C(=O)N[C@@H](CO)C(=O)N[C@@H](CO)C(=O)NCC(=O)N[C@@H](C)C(=O)N1CCC[C@H]1C(=O)N1CCC[C@H]1C(=O)N1CCC[C@H]1C(=O)N[C@@H](CO)C(=O)N[C@@H](CCCCN)C(N)=O
B4: mt-362 (peptide)
peptide: H[Aib]QGTFTSDYSIYLD[Aib]QAAKEFVNWLMNGGPSSGAPPPSK(Palmitoyl)-NH2
modifications: N-terminus assumed
SMILES: CCCCCCCCCCCCCCCC(=O)NCCCC[C@H](NC(=O)[C@H](CO)NC(=O)[C@@H]1CCCN1C(=O)[C@@H]1CCCN1C(=O)[C@@H]1CCCN1C(=O)[C@H](C)NC(=O)CNC(=O)[C@H](CO)NC(=O)[C@H](CO)NC(=O)[C@@H]1CCCN1C(=O)CNC(=O)CNC(=O)[C@H](CC(N)=O)NC(=O)[C@H](CCSC)NC(=O)[C@H](CC(C)C)NC(=O)[C@H](Cc1c[nH]c2ccccc12)NC(=O)[C@H](CC(N)=O)NC(=O)[C@@H](NC(=O)[C@H](Cc1ccccc1)NC(=O)[C@H](CCC(=O)O)NC(=O)[C@H](CCCCN)NC(=O)[C@H](C)NC(=O)[C@H](C)NC(=O)[C@H](CCC(N)=O)NC(=O)C(C)(C)NC(=O)[C@H](CC(=O)O)NC(=O)[C@H](CC(C)C)NC(=O)[C@H](Cc1ccc(O)cc1)NC(=O)[C@@H](NC(=O)[C@H](CO)NC(=O)[C@H](Cc1ccc(O)cc1)NC(=O)[C@H](CC(=O)O)NC(=O)[C@H](CO)NC(=O)[C@@H](NC(=O)[C@H](Cc1ccccc1)NC(=O)[C@@H](NC(=O)CNC(=O)[C@H](CCC(N)=O)NC(=O)C(C)(C)NC(=O)[C@@H](N)Cc1c[nH]cn1)[C@@H](C)O)[C@@H](C)O)[C@@H](C)CC)C(C)C)C(N)=O

Tests used:
Test in all cases: cell-based or functional assay
[1] = molecular target: glucagon receptor, P47871
GLP-1 receptor, P43220 = molecular target: T1, GLP-1 receptor, P43220
T1 chain: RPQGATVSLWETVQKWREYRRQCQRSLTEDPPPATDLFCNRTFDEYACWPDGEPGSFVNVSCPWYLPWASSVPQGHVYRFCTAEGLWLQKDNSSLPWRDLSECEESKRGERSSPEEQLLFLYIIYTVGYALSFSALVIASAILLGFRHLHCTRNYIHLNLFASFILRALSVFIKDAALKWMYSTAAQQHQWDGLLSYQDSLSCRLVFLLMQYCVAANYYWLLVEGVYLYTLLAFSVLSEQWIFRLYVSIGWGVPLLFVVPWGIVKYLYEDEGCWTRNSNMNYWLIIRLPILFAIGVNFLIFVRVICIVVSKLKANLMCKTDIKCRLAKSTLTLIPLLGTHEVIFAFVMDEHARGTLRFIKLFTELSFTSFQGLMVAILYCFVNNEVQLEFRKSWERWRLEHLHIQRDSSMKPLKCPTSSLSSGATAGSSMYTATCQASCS

GIP receptor, P48546 = molecular target: T2, GIP receptor, P48546
T2 chain: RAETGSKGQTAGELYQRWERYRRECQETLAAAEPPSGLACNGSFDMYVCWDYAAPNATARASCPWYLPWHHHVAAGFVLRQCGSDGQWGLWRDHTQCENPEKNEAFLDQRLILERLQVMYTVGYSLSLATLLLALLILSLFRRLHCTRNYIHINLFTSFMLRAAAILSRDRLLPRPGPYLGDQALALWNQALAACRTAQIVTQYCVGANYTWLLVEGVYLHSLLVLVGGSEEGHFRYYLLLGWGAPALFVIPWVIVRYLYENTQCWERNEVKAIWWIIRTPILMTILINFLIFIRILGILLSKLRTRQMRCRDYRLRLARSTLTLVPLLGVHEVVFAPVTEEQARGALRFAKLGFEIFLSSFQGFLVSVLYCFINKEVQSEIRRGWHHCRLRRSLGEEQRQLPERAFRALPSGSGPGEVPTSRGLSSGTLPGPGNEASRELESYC

Sequence of glucagon receptor, P47871 (P47871 26-477 limits assumed): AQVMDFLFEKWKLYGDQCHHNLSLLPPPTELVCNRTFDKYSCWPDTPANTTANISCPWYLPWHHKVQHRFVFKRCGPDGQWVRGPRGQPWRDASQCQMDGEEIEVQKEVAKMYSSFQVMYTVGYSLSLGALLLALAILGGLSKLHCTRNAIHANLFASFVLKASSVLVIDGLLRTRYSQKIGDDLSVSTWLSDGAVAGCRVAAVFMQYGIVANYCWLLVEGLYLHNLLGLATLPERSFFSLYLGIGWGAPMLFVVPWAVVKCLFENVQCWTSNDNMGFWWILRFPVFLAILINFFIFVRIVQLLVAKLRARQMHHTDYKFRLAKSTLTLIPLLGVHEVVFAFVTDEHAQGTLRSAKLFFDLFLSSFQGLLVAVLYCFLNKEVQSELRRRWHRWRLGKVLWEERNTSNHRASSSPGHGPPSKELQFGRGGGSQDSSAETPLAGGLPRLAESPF

Binder | % relative activity [1] [%] | EC50 [1] [nM] | % relative activity (GLP-1 receptor, P43220) [%] | EC50 (GLP-1 receptor, P43220) [nM] | % relative activity (GIP receptor, P48546) [%] | EC50 (GIP receptor, P48546) [nM]
B1 | 3.61 | 1.77 | 226 | 0.0109 | 0.29 | 1.05
B2 | 7.76 | 0.823 | 672 | 0.0037 | 0.73 | 0.425
B3 | 3.7 | 0.954 | 367 | 0.0015 | 0.34 | 0.796
B4 | 83.2 | 0.0768 | 241 | 0.102 | 3.95 | 0.0782
H[Aib]QGTFTSDYSKYLDEQAAKEFIC(PEG 40 kDa)WLMNGGPSSGAPPPSK(Myristoyl)-NH2 [mt-349] | 3.82 | 0.549 | 286 | 0.0022 | 0.18 | 1.99
